Data on one substance can be found in patent EP0621339B1 (TAKARA SHUZO CO. LTD., dated 2001).

The target in this assay is HA molecule (haemagglutinin) of A/Okuda/57 (H2N2) (influenza A virus, H2N2 subtype, strain A/Okuda/57). The assay is described as follows: cell-based or functional assay.

For the substance monoclonal antibody C179, the HI (hemagglutination inhibition titer) (fold dilution of the ascites fluid) is below 32.
